These are literature values, as cited in article PMC3137789.

The series addresses plexinC1 (Homo sapiens) (UniProt O60486).

pKd: −log10 of the molar value.

Chain of UniProt O60486 (O60486 35-944): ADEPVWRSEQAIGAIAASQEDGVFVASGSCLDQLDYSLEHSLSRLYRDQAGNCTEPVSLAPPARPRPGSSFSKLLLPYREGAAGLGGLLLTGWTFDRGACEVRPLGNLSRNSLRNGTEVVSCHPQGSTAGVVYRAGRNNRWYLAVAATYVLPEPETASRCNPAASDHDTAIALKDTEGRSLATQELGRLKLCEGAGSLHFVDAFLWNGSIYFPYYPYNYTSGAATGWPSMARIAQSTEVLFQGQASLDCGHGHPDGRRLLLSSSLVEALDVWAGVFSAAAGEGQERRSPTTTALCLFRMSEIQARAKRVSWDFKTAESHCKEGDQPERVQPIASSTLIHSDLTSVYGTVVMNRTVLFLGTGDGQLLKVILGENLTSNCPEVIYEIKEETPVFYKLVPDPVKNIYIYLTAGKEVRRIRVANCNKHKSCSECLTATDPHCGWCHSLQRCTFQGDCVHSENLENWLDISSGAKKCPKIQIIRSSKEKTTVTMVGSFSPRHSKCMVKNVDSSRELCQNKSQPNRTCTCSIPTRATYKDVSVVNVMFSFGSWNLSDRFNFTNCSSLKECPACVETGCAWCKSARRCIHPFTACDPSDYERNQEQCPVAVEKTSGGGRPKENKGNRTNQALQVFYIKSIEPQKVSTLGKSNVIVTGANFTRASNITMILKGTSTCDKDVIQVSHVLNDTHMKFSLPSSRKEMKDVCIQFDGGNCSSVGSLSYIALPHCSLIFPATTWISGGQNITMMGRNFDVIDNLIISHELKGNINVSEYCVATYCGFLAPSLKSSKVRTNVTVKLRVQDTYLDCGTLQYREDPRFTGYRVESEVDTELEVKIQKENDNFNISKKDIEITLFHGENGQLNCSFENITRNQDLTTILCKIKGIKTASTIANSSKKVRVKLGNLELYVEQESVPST

As to Sema7A (from UniProt O75326), the pKd is 6.52.
